Source: US20250295803A1, “5T4 ANTIBODY-DRUG CONJUGATES AND USES THEREOF” (EXELIXIS, INC., priority 2022, published 2025)
Residue numbers refer to the chain shown, from its start.

T1: cynomolgus 5T4 on cells (HEK-cyno-5T4, transfected HEK293 and CHO cells) (cynomolgus monkey, UniProt Q4R8Y9 35-420)
T1 construct: also called HEK-cyno-5T4 cells
T1 sequence: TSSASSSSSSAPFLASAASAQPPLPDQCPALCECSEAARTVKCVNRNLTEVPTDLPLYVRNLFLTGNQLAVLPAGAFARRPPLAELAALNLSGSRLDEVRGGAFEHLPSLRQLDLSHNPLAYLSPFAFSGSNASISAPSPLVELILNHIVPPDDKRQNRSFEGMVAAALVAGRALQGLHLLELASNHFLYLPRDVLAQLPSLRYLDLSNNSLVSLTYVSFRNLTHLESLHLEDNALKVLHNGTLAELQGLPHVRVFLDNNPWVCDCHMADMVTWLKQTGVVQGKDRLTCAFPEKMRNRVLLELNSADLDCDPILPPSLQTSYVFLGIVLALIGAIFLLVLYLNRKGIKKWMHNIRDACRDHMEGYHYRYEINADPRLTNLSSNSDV

T2: mouse 5T4 on transfected HEK293 and CHO cells (mouse, UniProt Q9Z0L0 32-426)
T2 sequence: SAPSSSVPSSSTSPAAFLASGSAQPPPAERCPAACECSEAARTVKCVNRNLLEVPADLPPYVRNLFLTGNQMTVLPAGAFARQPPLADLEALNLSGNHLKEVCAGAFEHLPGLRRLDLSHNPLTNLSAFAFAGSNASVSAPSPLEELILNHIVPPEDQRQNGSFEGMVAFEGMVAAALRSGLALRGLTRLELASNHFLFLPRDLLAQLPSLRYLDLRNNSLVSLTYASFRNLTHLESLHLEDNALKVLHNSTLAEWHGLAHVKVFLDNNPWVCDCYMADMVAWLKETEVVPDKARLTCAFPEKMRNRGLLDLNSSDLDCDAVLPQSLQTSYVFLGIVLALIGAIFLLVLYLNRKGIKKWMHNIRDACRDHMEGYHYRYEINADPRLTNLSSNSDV

B1: mAbA17 (antibody, V domains shown)
VH: EVQLVESGGGLVQPGGSLRLSCAASGFTFSRYWIHWVRQAPGKGLEWVAAIFPYSGSTLYADSVKGRFTISADTSKNTAYLQMNSLRAEDTAVYYCARSPSRSILPSGLDYWGQGTLVTVSS
VL: DIQMTQSPSSLSASVGDRVTITCRASQSVSSAVAWYQQKPGKAPKLLIYSASSLYSGVPSRFSGSRSGTDFTLTISSLQPEDFATYYCQQGDGSPYTFGQGTKVEIKR
notes: also called Antibody mAbA17
B2: mAbA4 (antibody, V domains shown)
VH: EVQLVESGGGLVQPGGSLRLSCAASGFTFSRYYIHWVRQAPGKGLEWVAFISPGGSYTYYADSVKGRFTISADTSKNTAYLQMNSLRAEDTAVYYCAREYYSMGVLDYWGQGTLVTVSS
VL: B1 VL with G91A, D92Y, G93E
notes: also called Antibody mAbA4

Legend:
[1] = target: T1, cynomolgus 5T4 on cells (HEK-cyno-5T4, …); assay: cell binding on transfected HEK293 and CHO cells
[2] = target: T2, mouse 5T4 on transfected HEK293 and CHO …; assay: cell binding on transfected HEK293 and CHO cells

| Binder | binding result [1] | binding result [2] |
| --- | --- | --- |
| B1 | binds |  |
| B2 |  | no binding |
